In patent US20210346432A1 (Memorial Sloan Kettering, published 2021):
No end group written: not given here. *: point of attachment. Biotin = O=C1N[C@H]2[C@H](CS[C@H]2CCCCC(=O)*)N1

T1: ET140-p39 (human)
T1 construct: also called peptide 39
T1 peptide: Biotin-SGSGYCNASVTNSVKGTNA

T2: ET140-p2 (human)
T2 construct: also called peptide 2
T2 peptide: Biotin-SGSGQMAGQCSQNEYFDSL

T3: ET140-p3 (human)
T3 construct: also called peptide 3
T3 peptide: Biotin-SGSGMAGQCSQNEYFDSLL

T4: ET140-p5 (human)
T4 construct: also called peptide 5
T4 peptide: Biotin-SGSGGQCSQNEYFDSLLHA

T5: ET140-p31 (human, cysteine pairing not given here)
T5 construct: also called peptide 31
T5 peptide: Biotin-SGSGTPPLTCQRYCNASVT

T6: ET140-p33 (human, cysteine pairing not given here)
T6 construct: also called peptide 33
T6 peptide: Biotin-SGSGPLTCQRYCNASVTNS

T7: ET140-p25 (human, cysteine pairing not given here)
T7 construct: also called peptide 25
T7 peptide: Biotin-SGSGLRCSSNTPPLTCQRY

T8: ET140-p12 (human, cysteine pairing not given here)
T8 construct: also called peptide 12
T8 peptide: Biotin-SGSGYFDSLLHACIPCQLR

T9: ET140-p6 (human, cysteine pairing not given here)
T9 construct: also called peptide 6
T9 peptide: Biotin-SGSGQCSQNEYFDSLLHAC

T10: ET140-p22 (human, cysteine pairing not given here)
T10 construct: also called peptide 22
T10 peptide: Biotin-SGSGPCQLRCSSNTPPLTC

T11: ET140-p11 (human, cysteine pairing not given here)
T11 construct: also called peptide 11; ET140-pll
T11 peptide: Biotin-SGSGEYFDSLLHACIPCQL

T12: ET140-p29 (human, cysteine pairing not given here)
T12 construct: also called peptide 29
T12 peptide: Biotin-SGSGSNTPPLTCQRYCNAS

T13: ET140-p26 (human, cysteine pairing not given here)
T13 construct: also called peptide 26
T13 peptide: Biotin-SGSGRCSSNTPPLTCQRYC

T14: ET140-p37 (human)
T14 construct: also called peptide 37
T14 peptide: Biotin-SGSGQRYCNASVTNSVKGT

T15: ET140-p35 (human, cysteine pairing not given here)
T15 construct: also called peptide 35
T15 peptide: Biotin-SGSGTCQRYCNASVTNSVK

T16: ET140-p7 (human, cysteine pairing not given here)
T16 construct: also called peptide 7
T16 peptide: Biotin-SGSGCSQNEYFDSLLHACI

T17: ET140-p4 (human)
T17 construct: also called peptide 4
T17 peptide: Biotin-SGSGAGQCSQNEYFDSLLH

T18: ET140-p34 (human, cysteine pairing not given here)
T18 construct: also called peptide 34
T18 peptide: Biotin-SGSGLTCQRYCNASVTNSV

T19: ET140-p8 (human)
T19 construct: also called peptide 8
T19 peptide: Biotin-SGSGSQNEYFDSLLHACIP

T20: ET140-p21 (human, cysteine pairing not given here)
T20 construct: also called peptide 21
T20 peptide: Biotin-SGSGIPCQLRCSSNTPPLT

T21: ET140-p17 (human, cysteine pairing not given here)
T21 construct: also called peptide 17
T21 peptide: Biotin-SGSGLHACIPCQLRCSSNT

T22: ET140-p23 (human, cysteine pairing not given here)
T22 construct: also called peptide 23
T22 peptide: Biotin-SGSGCQLRCSSNTPPLTCQ

T23: biotinylated BCMA-Fc protein (human, UniProt Q02223 1-54, biotinylated (site not stated))
T23 construct: also called BCMA recombinant antigen; not shown: Fc part
T23 sequence: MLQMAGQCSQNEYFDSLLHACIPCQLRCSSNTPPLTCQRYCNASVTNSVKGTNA

B1: ET140-174 mIgG1 (antibody, V domains shown)
VH: EVQLVQSGAEVKKPGESLKISCKGSGYSFTSYWIGWVRQMPGKGLEWMGIIYPGDSDTRYSPSFQGHVTISADKSISTAYLQWSSLKASDTAMYYCARYSGSFDNWGQGTLVTVSS
VL: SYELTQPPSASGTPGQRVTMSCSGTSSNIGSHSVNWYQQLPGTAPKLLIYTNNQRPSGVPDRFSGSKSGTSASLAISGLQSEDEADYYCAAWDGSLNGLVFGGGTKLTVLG
notes: also called ET140-24 mIgG1; ET140-24
B2: ET140-153 mIgG1 (antibody, V domains shown)
VH: QVQLVQSGAEVKKPGSSVKVSCKASGGTFSSYAISWVRQAPGQGLEWMGRIIPILGIANYAQKFQGRVTITADKSTSTAYMELSSLRSEDTAVYYCARGGYYSHDMWSEDWGQGTLVTVSS
VL: LPVLTQPPSASGTPGQRVTISCSGRSSNIGSNSVNWYRQLPGAAPKLLIYSNNQRPPGVPVRFSGSKSGTSASLAISGLQSEDEATYYCATWDDNLNVHYVFGTGTKVTVLG
notes: also called ET140-3 mIgG1; ET140-3
B3: ET140-204 mIgG1 (antibody, V domains shown)
VH: EVQLVQSGAEMKKPGASLKLSCKASGYTFIDYYVYWMRQAPGQGLESMGWINPNSGGTNYAQKFQGRVTMTRDTSISTAYMELSRLRSDDTAMYYCARSQRDGYMDYWGQGTLVTVSS
VL: QSALTQPASVSASPGQSIAISCTGTSSDVGWYQQHPGKAPKLMIYEDSKRPSGVSNRFSGSKSGNTASLTISGLQAEDEADYYCSSNTRSSTLVFGGGTKLTVLG
notes: also called ET140-54 mIgG1; ET140-54

How the values were obtained:
ET140-p39 [1] = target: T1, ET140-p39; experiment: peptide ELISA, biotin peptide on streptavidin plate
Description: (§1) The peptides were coated onto Streptavidin plates at 2 ug/mL in PBST (PBS+0.05% Tween-20). After washing and blocking with 3% BSA. […] “mIgG1” used in all Examples represents that the variable region is fully human and the Fc part is mouse IgG1. Then HRP anti-mouse IgG detection antibody was added to each well. Finally, the color was developed using TMB substrate. A450 was recorded for data analysis.

ET140-p2 = target: T2, ET140-p2; experiment: as above
Description: as §1

ET140-p3 = target: T3, ET140-p3; experiment: as above
Description: as §1

ET140-p5 = target: T4, ET140-p5; experiment: as above
Description: as §1

ET140-p31 = target: T5, ET140-p31; experiment: as above
Description: as §1

ET140-p33 = target: T6, ET140-p33; experiment: as above
Description: as §1

ET140-p25 [2] = target: T7, ET140-p25; experiment: as above
Description: as §1

ET140-p12 = target: T8, ET140-p12; experiment: as above
Description: as §1

ET140-p6 = target: T9, ET140-p6; experiment: as above
Description: as §1

ET140-p22 [3] = target: T10, ET140-p22; experiment: as above
Description: as §1

ET140-p11 = target: T11, ET140-p11; experiment: as above
Description: as §1

ET140-p29 = target: T12, ET140-p29; experiment: as above
Description: as §1

ET140-p39 [4] = target: T1, ET140-p39; experiment: peptide ELISA on streptavidin plate, antibody 1 ug/mL
Description: as §1

ET140-p26 = target: T13, ET140-p26; experiment: as above
Description: as §1

ET140-p37 = target: T14, ET140-p37; experiment: as above
Description: as §1

ET140-p35 = target: T15, ET140-p35; experiment: as above
Description: as §1

ET140-p7 = target: T16, ET140-p7; experiment: as above
Description: as §1

ET140-p4 = target: T17, ET140-p4; experiment: as above
Description: as §1

ET140-p25 [5] = target: T7, ET140-p25; experiment: as above
Description: as §1

ET140-p22 [6] = target: T10, ET140-p22; experiment: as above
Description: as §1

ET140-p34 = target: T18, ET140-p34; experiment: as above
Description: as §1

ET140-p8 = target: T19, ET140-p8; experiment: as above
Description: as §1

ET140-p21 = target: T20, ET140-p21; experiment: as above
Description: as §1

ET140-p17 = target: T21, ET140-p17; experiment: as above
Description: as §1

ET140-p23 = target: T22, ET140-p23; experiment: as above
Description: as §1

[7] = target: T23, biotinylated BCMA-Fc protein; experiment: SPR (BIAcore X100), biotinylated BCMA-Fc captured on Sensor Chip CAP, antibody injected, 1:1 Langmuir fit
Description: In brief, 50 μg/mL of modified streptavidin was immobilized onto a Sensor Chip CAP by flowing the Biotin CAPture Reagent through the flow cells at 2 μL/min for 5 minutes. 10 ug/mL biotinylated BCMA-Fc protein was loaded onto the flow cell at a rate of 30 μL/min for 3 minutes. Following the standard protocol for kinetics, a series of injection of ESK1 was performed between 0.6 and 15 μg/mL, each step consisting of a 3 minute injection at 30 μL/min and 3 minute disassociation. […] Kinetic constants were derived by the global fitting (1:1 Langmuir binding model) using BIAcore ×100 Evaluation Software (Version 2.0.1).

| Binder | binding result (ET140-p39 [1]) | binding result (ET140-p2) | binding result (ET140-p3) | binding result (ET140-p5) | binding result (ET140-p31) | binding result (ET140-p33) | binding result (ET140-p25 [2]) | binding result (ET140-p12) | A450 (ET140-p39 [4]) | A450 (ET140-p37) | A450 (ET140-p35) | A450 (ET140-p7) | A450 (ET140-p4) | A450 (ET140-p22 [6]) | A450 (ET140-p34) | A450 (ET140-p8) | A450 (ET140-p21) | A450 (ET140-p17) | A450 (ET140-p23) | Kd [7] [nM] | further results |
| --- | --- | --- | --- | --- | --- | --- | --- | --- | --- | --- | --- | --- | --- | --- | --- | --- | --- | --- | --- | --- | --- |
| B1 | no binding (tested: 1 ug/mL) | no binding (tested: 1 ug/mL) | no binding (tested: 1 ug/mL) | no binding (tested: 1 ug/mL) | no binding (tested: 1 ug/mL) | no binding (tested: 1 ug/mL) | no binding (tested: 1 ug/mL) | no binding (tested: 1 ug/mL) | 0.071 | 0.086 | 0.076 | 0.087 | 0.081 | 0.098 | 0.069 | 0.083 | 0.086 | 0.15 | 0.109 | 4.8 | binding result (ET140-p6): no binding (tested: 1 ug/mL); binding result (ET140-p22 [3]): no binding (tested: 1 ug/mL); binding result (ET140-p11): no binding (tested: 1 ug/mL); binding result (ET140-p29): no binding (tested: 1 ug/mL); A450 (ET140-p26): 0.212; A450 (ET140-p25 [5]): 0.537 |
| B2 |  |  |  |  |  |  |  |  | 0.072 | 0.085 | 0.072 | 0.381 | 0.094 | 0.131 | 0.099 | 0.178 | 0.089 | 0.155 | 0.113 | 1.2 |  |
| B3 | no binding (tested: 1 ug/mL) | no binding (tested: 1 ug/mL) | no binding (tested: 1 ug/mL) | no binding (tested: 1 ug/mL) | no binding (tested: 1 ug/mL) | no binding (tested: 1 ug/mL) | no binding (tested: 1 ug/mL) | no binding (tested: 1 ug/mL) | 0.074 | 0.083 | 0.071 | 0.075 | 0.073 | 0.111 | 0.07 | 0.073 | 0.077 | 0.146 | 0.101 | 8.1 | binding result (ET140-p6): no binding (tested: 1 ug/mL); binding result (ET140-p22 [3]): no binding (tested: 1 ug/mL); binding result (ET140-p11): no binding (tested: 1 ug/mL); binding result (ET140-p29): no binding (tested: 1 ug/mL); A450 (ET140-p26): 0.2; A450 (ET140-p25 [5]): 0.494 |
